{"source": "patent US8741849B2", "about": "“Kinase inhibitors and uses thereof” (priority 2007, dated 2014)", "key": {"PKC β 1 (h)": {"biological_target": "T1, PKC β 1 (h) (Homo sapiens, UniProt P05771)", "T1 construct": "purchased Upstate (Millipore) KinaseProfiler service", "T1 sequence (P05771 whole entry)": "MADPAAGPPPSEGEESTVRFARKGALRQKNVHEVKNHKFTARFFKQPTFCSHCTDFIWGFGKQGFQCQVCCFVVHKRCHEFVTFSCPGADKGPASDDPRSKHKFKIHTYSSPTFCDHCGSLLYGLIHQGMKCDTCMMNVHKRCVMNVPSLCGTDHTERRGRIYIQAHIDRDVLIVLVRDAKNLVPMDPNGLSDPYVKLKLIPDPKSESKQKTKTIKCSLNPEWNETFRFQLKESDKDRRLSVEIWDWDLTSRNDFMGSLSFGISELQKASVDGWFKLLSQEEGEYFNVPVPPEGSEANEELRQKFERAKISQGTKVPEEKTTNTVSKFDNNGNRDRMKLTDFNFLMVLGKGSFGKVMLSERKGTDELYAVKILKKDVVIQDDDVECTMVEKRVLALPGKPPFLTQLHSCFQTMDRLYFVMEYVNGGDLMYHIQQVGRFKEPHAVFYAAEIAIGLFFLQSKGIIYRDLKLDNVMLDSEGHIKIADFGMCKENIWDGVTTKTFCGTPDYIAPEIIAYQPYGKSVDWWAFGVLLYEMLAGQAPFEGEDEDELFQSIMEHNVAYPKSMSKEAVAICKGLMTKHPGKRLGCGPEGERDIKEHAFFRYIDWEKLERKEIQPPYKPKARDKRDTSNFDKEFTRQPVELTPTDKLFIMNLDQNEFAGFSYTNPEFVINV", "test": "kinase profiler assay (radiometric)", "assay_type": "biochemical", "settings": "@ = 30 μm peptide; less than 100 = kinase inhibition, greater than 100 = stimulation", "source_text": "(§1) KIP peptides […] [SEQ ID NO: 142], […] [SEQ ID NO: 173], and […] [SEQ ID NO: 163] were utilized to profile a variety of different kinases. The kinase profiler assay services provided by Upstate, a part of Millipore Corporation (Billerica, Mass.), were utilized to conduct the kinase profiles. The kinase profiler assays, which are radiometric, are based on measuring the amount of radioactive transfer from an ATP (y-^33P-ATP) to a substrate peptide using known concentrations of kinase enzyme, inhibitor, ATP, and buffer at defined time points and temperatures. Details on the reaction conditions for each kinase are available at www.millipore.com/drugdiscovery/dd3/KinaseProfiler. […] ROCK-1(h) (5-10 mU) was incubated with 8 mM MOPS pH 7.0, 0.2 mM EDTA, 30 i.IM of the peptide […] [SEQ ID NO: 189], 10 mM Mg acetate and y-^33P-ATP (specific activity approximately 500 cpm/pmol, concentration as required) in a final reaction volume of 25 pl. The reaction was initiated by the addition of the MgATP mixture in the absence and presence of inhibitor compounds. After incubation for 40 minutes at room temperature, the reaction was stopped by the addition of 5) 11 of a 3% phosphoric acid solution. 10 pl of the reaction mixture then was spotted onto a P30 filtermat. The filtermat was washed three times for 5 minutes in 75 mM phosphoric acid, once in methanol, dried and counted by scintillation counting. Where the kinase is uninhibited, the kinase phosphorylates a positively charged substrate with radioactive ATP, which then binds to a negatively charged filter membrane. Scintillation counts (radioactivity) directly correlate with kinase activity. […] All profile data less than 100 indicate kinase inhibition while data greater than 100 indicate kinase stimulation."}, "PKG1α (h)": {"biological_target": "T2, PKG1α (h) (Homo sapiens, UniProt Q13976)", "T2 construct": "purchased Upstate (Millipore) KinaseProfiler service", "T2 sequence (Q13976 1-671)": "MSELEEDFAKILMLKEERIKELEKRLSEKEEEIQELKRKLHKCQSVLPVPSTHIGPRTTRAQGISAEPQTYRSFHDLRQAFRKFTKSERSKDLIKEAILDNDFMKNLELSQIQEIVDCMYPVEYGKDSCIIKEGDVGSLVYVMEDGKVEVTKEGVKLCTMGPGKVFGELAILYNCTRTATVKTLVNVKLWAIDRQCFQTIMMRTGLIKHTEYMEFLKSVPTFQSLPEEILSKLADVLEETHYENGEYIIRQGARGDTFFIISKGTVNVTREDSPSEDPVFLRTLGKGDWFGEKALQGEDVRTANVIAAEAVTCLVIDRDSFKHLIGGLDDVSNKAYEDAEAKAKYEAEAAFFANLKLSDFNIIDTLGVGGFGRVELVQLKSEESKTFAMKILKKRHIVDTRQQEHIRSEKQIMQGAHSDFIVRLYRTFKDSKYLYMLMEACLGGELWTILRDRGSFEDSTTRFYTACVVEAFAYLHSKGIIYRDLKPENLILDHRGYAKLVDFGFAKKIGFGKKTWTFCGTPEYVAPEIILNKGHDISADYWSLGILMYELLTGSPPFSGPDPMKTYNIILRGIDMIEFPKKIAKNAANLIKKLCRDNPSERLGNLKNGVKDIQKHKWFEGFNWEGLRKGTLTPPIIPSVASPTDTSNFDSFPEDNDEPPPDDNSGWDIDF", "test": "kinase profiler assay (radiometric)", "assay_type": "biochemical", "settings": "@ = 30 μm peptide; less than 100 = kinase inhibition, greater than 100 = stimulation", "source_text": "as §1"}}, "data": [{"sequence": "WLRRIKAWLRRIKALNRQLGVAA", "values": [{"measurement": "Profile-1, PKC β 1 (h)", "setting": "PKC β 1 (h)", "value": 8}, {"measurement": "Profile-1, PKG1α (h)", "setting": "PKG1α (h)", "value": 16}]}]}
